The text below walks through data of FireProtDB (doi:10.1002/pro.5560040106).

The conditions of the data set: Bacillus subtilis (strain 168), pH 7, Urea, CD, Potassium phosphate 10 mM, reversible: yes, whole UniProt chain shown.

B1: Phosphocarrier protein HPr wild type, P08877 (protein)
chain: MAQKTFKVTADSGIHARPATVLVQTASKYDADVNLEYNGKTVNLKSIMGVMSLGIAKGAEITISASGADENDALNALEETMKSEGLGE
Regarding B1, the denaturant m value reads like this: (10 °C) 1.04 kcal/mol/M; (15 °C) 1.06 kcal/mol/M; (25 °C) 1.08 kcal/mol/M; (35 °C) 1.05 kcal/mol/M; (40 °C) 1.04 kcal/mol/M. Further, the “denaturant midpoint (higher = more stable)” value came out at 3.32 M (10 °C); 3.52 M (15 °C); 3.9 M (25 °C); 3.77 M (35 °C); 3.64 M (40 °C). For the same protein, the unfolding free energy by setting is: (10 °C) 3.45 kcal/mol; (15 °C) 3.73 kcal/mol; (25 °C) 4.21 kcal/mol; (35 °C) 3.96 kcal/mol; (40 °C) 3.79 kcal/mol.
